From publication PMC2807882, “Conservation of DNA-binding specificity and oligomerisation properties within the p53 family”

T1: ΔNp63β (Homo sapiens, UniProt Q9H3D4-4 1-461)
T1 sequence: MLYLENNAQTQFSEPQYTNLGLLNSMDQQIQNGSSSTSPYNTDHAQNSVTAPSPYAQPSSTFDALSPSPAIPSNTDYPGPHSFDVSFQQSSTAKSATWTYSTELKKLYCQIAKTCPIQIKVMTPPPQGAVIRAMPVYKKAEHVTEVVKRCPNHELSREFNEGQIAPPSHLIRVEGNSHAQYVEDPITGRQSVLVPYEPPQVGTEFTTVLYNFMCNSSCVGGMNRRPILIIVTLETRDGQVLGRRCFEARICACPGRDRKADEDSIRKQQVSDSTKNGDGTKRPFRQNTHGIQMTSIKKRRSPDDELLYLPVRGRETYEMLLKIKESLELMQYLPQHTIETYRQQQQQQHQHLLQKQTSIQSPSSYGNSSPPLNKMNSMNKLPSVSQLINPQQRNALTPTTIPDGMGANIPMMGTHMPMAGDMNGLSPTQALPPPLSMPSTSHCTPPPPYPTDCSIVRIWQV

T2: Drp53 (Danio rerio, UniProt P79734 1-373)
T2 sequence: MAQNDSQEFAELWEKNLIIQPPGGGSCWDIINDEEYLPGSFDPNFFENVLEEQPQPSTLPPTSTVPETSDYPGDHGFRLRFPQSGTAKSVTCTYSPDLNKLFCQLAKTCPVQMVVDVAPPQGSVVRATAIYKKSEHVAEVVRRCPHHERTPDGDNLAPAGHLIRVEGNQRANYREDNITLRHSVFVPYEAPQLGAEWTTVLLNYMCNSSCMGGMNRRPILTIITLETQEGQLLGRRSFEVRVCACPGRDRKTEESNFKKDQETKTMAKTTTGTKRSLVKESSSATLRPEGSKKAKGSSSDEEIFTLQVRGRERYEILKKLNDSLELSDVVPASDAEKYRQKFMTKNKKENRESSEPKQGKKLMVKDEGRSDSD

T3: ΔNp63γ (Homo sapiens, UniProt Q9H3D4-6 1-393)
T3 sequence: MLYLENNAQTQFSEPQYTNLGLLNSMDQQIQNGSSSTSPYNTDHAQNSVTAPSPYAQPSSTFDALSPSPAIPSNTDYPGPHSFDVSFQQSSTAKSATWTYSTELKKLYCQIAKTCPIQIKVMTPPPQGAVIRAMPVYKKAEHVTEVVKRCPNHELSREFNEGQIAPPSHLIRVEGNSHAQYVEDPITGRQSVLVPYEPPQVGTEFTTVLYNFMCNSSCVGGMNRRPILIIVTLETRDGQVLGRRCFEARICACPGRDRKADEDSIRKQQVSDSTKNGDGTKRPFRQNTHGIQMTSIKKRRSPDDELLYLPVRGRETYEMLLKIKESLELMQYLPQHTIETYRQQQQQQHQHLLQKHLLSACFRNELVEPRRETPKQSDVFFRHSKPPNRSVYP

T4: Dmp53 (Drosophila melanogaster, UniProt Q9N6D8 1-385)
T4 sequence: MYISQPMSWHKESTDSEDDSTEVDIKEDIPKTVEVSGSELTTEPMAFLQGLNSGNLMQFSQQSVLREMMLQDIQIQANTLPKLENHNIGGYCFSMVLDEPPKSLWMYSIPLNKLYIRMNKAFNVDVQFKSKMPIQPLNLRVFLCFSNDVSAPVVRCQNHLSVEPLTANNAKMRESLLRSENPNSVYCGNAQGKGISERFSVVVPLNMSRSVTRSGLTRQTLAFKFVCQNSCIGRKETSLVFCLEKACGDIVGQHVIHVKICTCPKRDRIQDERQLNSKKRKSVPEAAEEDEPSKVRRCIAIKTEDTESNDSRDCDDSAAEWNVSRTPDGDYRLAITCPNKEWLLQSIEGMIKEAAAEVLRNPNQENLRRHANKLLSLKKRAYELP

T5: ΔNp63α (Homo sapiens, UniProt Q9H3D4-2 1-586)
T5 sequence: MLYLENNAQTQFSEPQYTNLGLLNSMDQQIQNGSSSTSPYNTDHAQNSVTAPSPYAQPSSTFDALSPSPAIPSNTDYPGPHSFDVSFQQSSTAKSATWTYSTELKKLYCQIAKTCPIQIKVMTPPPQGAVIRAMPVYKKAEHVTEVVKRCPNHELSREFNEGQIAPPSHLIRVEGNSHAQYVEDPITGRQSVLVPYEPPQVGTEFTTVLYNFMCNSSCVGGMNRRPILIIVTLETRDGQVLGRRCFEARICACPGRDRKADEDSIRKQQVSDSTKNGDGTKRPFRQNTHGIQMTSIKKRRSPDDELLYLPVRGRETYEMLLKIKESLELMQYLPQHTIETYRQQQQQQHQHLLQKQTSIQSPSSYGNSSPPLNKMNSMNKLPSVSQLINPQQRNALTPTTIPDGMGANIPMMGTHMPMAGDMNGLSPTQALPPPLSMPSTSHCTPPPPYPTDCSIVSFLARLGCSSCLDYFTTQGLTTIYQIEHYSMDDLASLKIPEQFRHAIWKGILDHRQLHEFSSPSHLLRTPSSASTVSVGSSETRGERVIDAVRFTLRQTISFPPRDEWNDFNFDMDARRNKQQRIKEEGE

T6: ΔNp73β (Homo sapiens, UniProt O15350-9 1-450)
T6 sequence: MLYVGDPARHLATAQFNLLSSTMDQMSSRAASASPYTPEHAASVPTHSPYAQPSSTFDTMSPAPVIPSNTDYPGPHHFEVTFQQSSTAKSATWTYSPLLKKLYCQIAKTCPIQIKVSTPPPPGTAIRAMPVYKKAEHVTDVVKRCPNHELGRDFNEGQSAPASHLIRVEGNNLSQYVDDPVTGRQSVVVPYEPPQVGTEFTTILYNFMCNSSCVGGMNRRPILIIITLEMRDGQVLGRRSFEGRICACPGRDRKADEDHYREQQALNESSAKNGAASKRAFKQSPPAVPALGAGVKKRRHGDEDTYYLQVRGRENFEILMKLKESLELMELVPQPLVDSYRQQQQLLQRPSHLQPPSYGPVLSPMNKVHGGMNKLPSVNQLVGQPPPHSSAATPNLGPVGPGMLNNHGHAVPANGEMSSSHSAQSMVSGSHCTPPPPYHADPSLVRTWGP


What was measured:
Assay in all cases: anisotropy competition; 25 mM NaPi, 225 mM NaCl, 10% v/v glycerol, 5 mM DTT, 0.2 mg/mL BSA, 22°C; 20 nM labelled DNA; pH not stated for the binding assay
Settings in all cases: protein: recombinant; tags: N-terminal 6xHis-lipoyl-TEV tag, cleaved; chain copies: 4
[1] = target: T1, ΔNp63β
[2] = target: T2, Drp53
[3] = target: T7, Xlp53 (Xenopus laevis, UniProt Q7T1D0 1-362)
[4] = target: Mmp53 (Mus musculus, UniProt P02340 1-390)
[5] = target: T3, ΔNp63γ
[6] = target: T4, Dmp53
[7] = target: T5, ΔNp63α
[8] = target: T6, ΔNp73β
[9] = target: Hsp53 (Homo sapiens, UniProt P04637 1-393)
[10] = target: T7, Xlp53; remark: listed apart in the source

Mmp53, sequence (P02340 whole entry): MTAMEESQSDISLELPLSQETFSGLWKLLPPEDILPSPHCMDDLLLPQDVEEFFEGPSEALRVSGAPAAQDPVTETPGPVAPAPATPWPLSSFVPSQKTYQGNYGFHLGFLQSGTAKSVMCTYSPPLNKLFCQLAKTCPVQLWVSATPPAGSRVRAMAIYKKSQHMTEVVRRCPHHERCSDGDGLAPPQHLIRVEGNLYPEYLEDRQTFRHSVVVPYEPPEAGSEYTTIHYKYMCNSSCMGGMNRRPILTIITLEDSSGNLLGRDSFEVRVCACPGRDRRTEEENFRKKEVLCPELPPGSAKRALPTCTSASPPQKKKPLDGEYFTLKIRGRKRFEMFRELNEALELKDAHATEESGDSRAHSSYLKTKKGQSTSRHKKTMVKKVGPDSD
T7 sequence (Q7T1D0 entry or part of it): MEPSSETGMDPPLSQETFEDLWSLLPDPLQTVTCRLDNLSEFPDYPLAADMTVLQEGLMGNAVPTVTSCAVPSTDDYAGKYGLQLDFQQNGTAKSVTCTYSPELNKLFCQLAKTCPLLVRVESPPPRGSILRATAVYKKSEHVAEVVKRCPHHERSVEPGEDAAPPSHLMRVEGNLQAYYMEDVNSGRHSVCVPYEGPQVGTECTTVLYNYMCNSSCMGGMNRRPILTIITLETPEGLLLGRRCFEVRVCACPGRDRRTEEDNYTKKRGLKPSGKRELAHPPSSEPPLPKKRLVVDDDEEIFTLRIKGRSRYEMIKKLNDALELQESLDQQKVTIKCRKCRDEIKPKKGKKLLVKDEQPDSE
Hsp53, sequence (P04637 whole entry): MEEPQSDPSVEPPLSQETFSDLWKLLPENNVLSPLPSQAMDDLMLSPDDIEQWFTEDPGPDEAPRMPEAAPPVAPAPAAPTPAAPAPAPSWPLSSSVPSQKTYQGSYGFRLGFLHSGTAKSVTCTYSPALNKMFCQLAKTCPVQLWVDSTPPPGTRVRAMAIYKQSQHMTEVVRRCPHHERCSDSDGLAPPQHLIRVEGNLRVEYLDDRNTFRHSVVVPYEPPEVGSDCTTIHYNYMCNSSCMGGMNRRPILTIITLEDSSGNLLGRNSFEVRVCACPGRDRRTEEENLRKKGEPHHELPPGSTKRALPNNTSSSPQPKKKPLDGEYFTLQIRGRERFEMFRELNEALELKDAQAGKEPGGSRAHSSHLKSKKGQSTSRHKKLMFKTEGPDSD

| Binder | binding signal [1] | binding signal [2] | binding signal [3] | binding signal [4] | binding signal [5] | binding signal [6] | binding signal [7] | binding signal [8] | binding signal [9] | Kd [10] |
| --- | --- | --- | --- | --- | --- | --- | --- | --- | --- | --- |
| T6C (dsDNA) DNA 1: CGCGGACACGTCCGGACATGTCCCGC DNA 2: GCGGGACATGTCCGGACGTGTCCGCG | 0.57 ΔlogKd vs ref | 0.65 ΔlogKd vs ref | 0.7 ΔlogKd vs ref | 0.36 ΔlogKd vs ref | 0.52 ΔlogKd vs ref | 0.25 ΔlogKd vs ref | 0.25 ΔlogKd vs ref | 0.62 ΔlogKd vs ref | 0.53 ΔlogKd vs ref | – |
| A3C (dsDNA) DNA 1: CGCGGCCATGTCCGGACATGTCCCGC DNA 2: GCGGGACATGTCCGGACATGGCCGCG | – | – | 0.82 ΔlogKd vs ref | 0.46 ΔlogKd vs ref | 0.93 ΔlogKd vs ref | 0.75 ΔlogKd vs ref | – | – | 0.66 ΔlogKd vs ref | – |
| A5G (dsDNA) DNA 1: CGCGGACGTGTCCGGACATGTCCCGC DNA 2: GCGGGACATGTCCGGACACGTCCGCG | – | – | – | – | – | – | – | – | – | -6.64 log10(M) |
| A5C (dsDNA) DNA 1: CGCGGACCTGTCCGGACATGTCCCGC DNA 2: GCGGGACATGTCCGGACAGGTCCGCG | 0.57 ΔlogKd vs ref | 0.77 ΔlogKd vs ref | 0.48 ΔlogKd vs ref | 0.4 ΔlogKd vs ref | 0.58 ΔlogKd vs ref | 0.54 ΔlogKd vs ref | 0.3 ΔlogKd vs ref | 0.64 ΔlogKd vs ref | 0.45 ΔlogKd vs ref | – |
| G2C (dsDNA) DNA 1: CGCGCACATGTCCGGACATGTCCCGC DNA 2: GCGGGACATGTCCGGACATGTGCGCG | 0.36 ΔlogKd vs ref | 0.41 ΔlogKd vs ref | 0.27 ΔlogKd vs ref | 0.28 ΔlogKd vs ref | 0.37 ΔlogKd vs ref | – | 0.15 ΔlogKd vs ref | 0.44 ΔlogKd vs ref | 0.37 ΔlogKd vs ref | – |
| G7C (dsDNA) DNA 1: CGCGGACATCTCCGGACATGTCCCGC DNA 2: GCGGGACATGTCCGGAGATGTCCGCG | 1.45 ΔlogKd vs ref | 1.3 ΔlogKd vs ref | – | 0.67 ΔlogKd vs ref | 1.68 ΔlogKd vs ref | 1.51 ΔlogKd vs ref | 1.33 ΔlogKd vs ref | 1.8 ΔlogKd vs ref | 0.9 ΔlogKd vs ref | -5.7 log10(M) |
